From patent US20060226082A1, “Methods for substrate and modulator screening using enzyme-reactor chromatography/tandem mass spectrometry” (McMaster University, priority 2005, published 2006)

Substrate: Nc1ncnc2c1ncn2[C@@H]1O[C@H](CO)[C@@H](O)[C@H]1O
Experiment: Absorbance-based assay of ADA in solution
Format: biochemical, bovine
Settings: other: ADA in solution, absorbance assay (FIG. 7)
Method: FIG. 7 is a graph showing the assessment of Km values for ADA in solution using an absorbance-based assay.
The KI value was determined by extrapolation of IC50 values to the point of zero substrate concentration. The method is based on the derivation described by Cheng and Prusoff,^26 as shown below. Km values were obtained using immobilized enzyme reactor columns by plotting the concentration of product formed upon infusion of a given concentration of substrate and fitting the data to the Michaelis-Menten equation. The data was compared to that obtained using a conventional absorbance based assay (see below).^27

B1: adenosine deaminase (ADA) in solution (Bos taurus) (protein)
chain: MAQTPAFNKPKVELHVHLDGAIKPETILYYGRKRGIALPADTPEELQNIIGMDKPLSLPEFLAKFDYYMPAIAGCREAVKRIAYEFVEMKAKDGVVYVEVRYSPHLLANSKVEPIPWNQAEGDLTPDEVVSLVNQGLQEGERDFGVKVRSILCCMRHQPSWSSEVVELCKKYREQTVVAIDLAGDETIEGSSLFPGHVKAYAEAVKSGVHRTVHAGEVGSANVVKEAVDTLKTERLGHGYHTLEDATLYNRLRQENMHFEVCPWSSYLTGAWKPDTEHPVVRFKNDQVNYSLNTDDPLIFKSTLDTDYQMTKNEMGFTEEEFKRLNINAAKSSFLPEDEKKELLDLLYKAYGMPSPASAEQCL
notes: Adenosine deaminase (ADA, Type V, from bovine intestine, EC 3.5.4.4); purchased Sigma-Aldrich (Oakville, Ontario, Canada) Type V (catalogue number not given); host or cells: bovine intestine (tissue-derived)
  Km: 89 µM
